Assay results as given in publication PMC12109034.

B1: GST::At-I2 (natural protein)
chain: MTEPKRGRVQWDEANIVEIESNKPVRQKITEPKTPYHPMMDDDGSLSPRGRAFDECVDDMQRAEELRNVLNDAAASSSRNSSQGSGGGGWSSSDEEEEEADPMDQDEEGSGSGKNERFNAHRKAHYDEFRKVKELRSSGSFYEEEEEEDDGAKGSKSETTTNSRHTKGGNKELDATKTVSGTSSSSSPELI

What was measured:
[1] = molecular target: 6xHis::TdPP1a (durum wheat)
[2] = molecular target: TdPP1-T243M (durum wheat)
[3] = molecular target: 6xHis::TdPP1a (durum wheat); remark: listed apart in the source
[4] = molecular target: TdPP1-H135A (durum wheat)
[5] = molecular target: TdPP1-H135A (durum wheat); remark: listed apart in the source
[6] = molecular target: TdPP1-H135A (durum wheat); remark: listed apart in the source

Molecule | percent inhibition of phosphatase activity (pNPP) at three TdRL1 concentrations; 59% at 26 nM (1:1 molar ratio), highest value at the higher concentration [1] | IC50 of inhibition of phosphatase activity (pNPP substrate, 37 °C, 1 μg enzyme) [2] | IC50 of inhibition of phosphatase activity (pNPP substrate, 37 °C, 1 μg enzyme) [3] | IC50 of inhibition of phosphatase activity (pNPP substrate, 37 °C, 1 μg enzyme) [4] | percent inhibition of phosphatase activity (pNPP) by TdRL1 at three concentrations; value at high concentrations [5] | percent inhibition of phosphatase activity (pNPP) by At-I2 at three concentrations; highest at high concentration [6] | percent inhibition of phosphatase activity (pNPP) at three At-I2 concentrations; maximum at the highest concentration used [1]
6xHis-MBP::TdRL1 (natural protein) | 89.7% | 35.6 nM | 32 nM | 37 nM | 91% | – | –
B1 | – | – | – | – | – | 100% | 90.4%
